Here are results for six molecules from EP4778941A1 (Jiangsu Hengrui Pharmaceuticals Co., Ltd., dated 2025).

In assay [1] the target is T1, Human MET protein on the cell surface (human, UniProt P08581 25-1390).
T1 construct: whole, on cells; also called MET single-positive cells (NCI-H1975, NCI-H1703)
Briefly: FACS on NCI-H1975 cells (MET single-positive), FIG. 3.

The target of assay [2] is Human HER3 and MET proteins together on HER3/MET double-positive cells (human, UniProt P21860 20-1342; P08581 25-1390). In words: cell-based or functional assay.
In assay [3] the target is T2, His-tagged human HER3 antigen (human, UniProt P21860 20-643).
T2 construct: Soluble antigen used as analyte in SPR; not shown: His tag
Briefly: SPR, Biacore 8K, protein A chip; ADC captured, His-tagged antigen 6.25-400 nM as analyte; 1:1 Langmuir.

Assay [4] has as its target T3, His-tagged human MET antigen (human, UniProt P08581 25-932).
T3 construct: Soluble antigen used as analyte in SPR; not shown: His tag
The assay is described as above.

Assay [5] deals with T2, His-tagged human HER3 antigen. The description is as above. The source holds these as a separate data set.
Assay [6] deals with T1, Human MET protein on the cell surface. Briefly: FACS on NCI-H1703 cells (MET single-positive).
In assay [7] the target is T4, Human HER3 protein on the cell surface (human, UniProt P21860 20-1342).
T4 construct: whole, on cells; also called HER3 single-positive cells (MDA-MB-453)
In words: FACS on HCC827 Osimertinib-resistant cells (HER3/MET double-positive).

Assay [8] has as its target T4, Human HER3 protein on the cell surface. Briefly: cell-based or functional assay.
For assay [9] the target is unchanged. In words: FACS on MDA-MB-453 cells (HER3 single-positive).
Assay [10] deals with T1, Human MET protein on the cell surface. Briefly: cell-based or functional assay.
Assay [11] has as its target T4, Human HER3 protein on the cell surface. In words: cell-based or functional assay. The source holds these as a separate data set.

Like-named read-outs stand apart in the source and are kept apart here.

T3 sequence (P08581 25-932 limits assumed): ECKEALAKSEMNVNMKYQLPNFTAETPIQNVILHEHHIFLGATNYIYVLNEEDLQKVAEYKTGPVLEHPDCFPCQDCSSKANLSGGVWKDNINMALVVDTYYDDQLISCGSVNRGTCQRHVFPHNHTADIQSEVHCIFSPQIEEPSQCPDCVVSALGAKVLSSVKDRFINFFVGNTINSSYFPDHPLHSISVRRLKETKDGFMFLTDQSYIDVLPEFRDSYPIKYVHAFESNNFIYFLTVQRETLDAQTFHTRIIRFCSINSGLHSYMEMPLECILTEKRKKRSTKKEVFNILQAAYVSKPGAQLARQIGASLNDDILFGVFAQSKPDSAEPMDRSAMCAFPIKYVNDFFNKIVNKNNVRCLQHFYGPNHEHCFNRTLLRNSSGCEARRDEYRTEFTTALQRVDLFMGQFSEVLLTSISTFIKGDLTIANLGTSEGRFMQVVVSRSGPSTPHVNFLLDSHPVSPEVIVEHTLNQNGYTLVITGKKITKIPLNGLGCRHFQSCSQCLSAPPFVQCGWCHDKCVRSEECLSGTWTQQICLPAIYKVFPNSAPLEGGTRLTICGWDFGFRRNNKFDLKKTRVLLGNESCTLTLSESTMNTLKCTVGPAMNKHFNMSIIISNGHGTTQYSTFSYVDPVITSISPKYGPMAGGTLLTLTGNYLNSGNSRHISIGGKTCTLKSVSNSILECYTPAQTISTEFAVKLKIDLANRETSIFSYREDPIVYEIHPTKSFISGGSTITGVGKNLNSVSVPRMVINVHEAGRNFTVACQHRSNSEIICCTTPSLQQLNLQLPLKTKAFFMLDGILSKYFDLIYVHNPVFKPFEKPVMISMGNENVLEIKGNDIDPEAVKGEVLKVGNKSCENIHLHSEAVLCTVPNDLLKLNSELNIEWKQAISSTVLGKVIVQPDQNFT
T1 sequence (P08581 25-1390): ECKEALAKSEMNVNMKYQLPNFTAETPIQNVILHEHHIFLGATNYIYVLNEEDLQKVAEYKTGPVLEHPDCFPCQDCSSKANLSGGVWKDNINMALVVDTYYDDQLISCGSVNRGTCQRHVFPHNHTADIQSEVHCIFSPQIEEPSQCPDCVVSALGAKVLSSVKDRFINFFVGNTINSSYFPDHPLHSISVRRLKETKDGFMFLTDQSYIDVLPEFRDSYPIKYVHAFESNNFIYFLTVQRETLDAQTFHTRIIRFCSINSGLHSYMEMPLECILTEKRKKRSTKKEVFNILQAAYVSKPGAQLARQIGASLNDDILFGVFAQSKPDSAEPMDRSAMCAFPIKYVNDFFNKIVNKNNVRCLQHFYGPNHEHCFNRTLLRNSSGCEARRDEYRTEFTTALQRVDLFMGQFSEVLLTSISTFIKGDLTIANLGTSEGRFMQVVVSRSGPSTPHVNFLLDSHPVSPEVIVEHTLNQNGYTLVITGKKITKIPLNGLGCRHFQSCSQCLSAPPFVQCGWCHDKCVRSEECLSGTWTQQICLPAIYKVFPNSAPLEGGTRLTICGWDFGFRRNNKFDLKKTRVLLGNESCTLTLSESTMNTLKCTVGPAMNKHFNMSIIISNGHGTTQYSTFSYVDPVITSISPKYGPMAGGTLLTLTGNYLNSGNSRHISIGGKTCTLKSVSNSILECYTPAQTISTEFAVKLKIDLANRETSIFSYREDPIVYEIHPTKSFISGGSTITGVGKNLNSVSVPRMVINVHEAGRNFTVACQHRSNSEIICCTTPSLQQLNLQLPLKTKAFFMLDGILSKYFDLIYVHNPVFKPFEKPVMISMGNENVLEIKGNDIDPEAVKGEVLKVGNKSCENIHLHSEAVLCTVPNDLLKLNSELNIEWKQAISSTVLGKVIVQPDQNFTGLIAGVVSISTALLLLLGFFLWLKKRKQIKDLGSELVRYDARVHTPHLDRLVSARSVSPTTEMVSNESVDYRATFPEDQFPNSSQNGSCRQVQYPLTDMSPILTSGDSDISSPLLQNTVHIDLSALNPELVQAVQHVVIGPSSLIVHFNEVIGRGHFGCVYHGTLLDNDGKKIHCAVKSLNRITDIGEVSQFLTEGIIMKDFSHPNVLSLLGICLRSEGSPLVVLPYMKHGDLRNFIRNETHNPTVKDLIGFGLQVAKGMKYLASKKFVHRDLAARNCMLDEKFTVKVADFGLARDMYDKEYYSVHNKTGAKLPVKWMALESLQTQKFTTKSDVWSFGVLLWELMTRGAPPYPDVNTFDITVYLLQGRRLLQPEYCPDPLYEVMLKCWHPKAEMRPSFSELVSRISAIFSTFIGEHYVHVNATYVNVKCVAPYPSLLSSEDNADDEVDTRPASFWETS

B1: Anti-HER3/MET bispecific antibody P3-A (bispecific antibody, human IgG1, kappa)
heavy 1: not shown
light 1: QAVLTQPSSVSGAPGQRVTISCTGSSSNIGAGYDVHWYQQLPGTAPKLLIYGNSNRPSGVPDRFSGSKSGTSASLAITGLQAEDEADYYCQSYDSSLSGVFGTGTQLTVLGGGGSGIPPKIECLPIDISIDEGKVLTVASAFTGEPTPEVTWSTGGRKIHSQEQGRFHIENTDDSTTLTIKDVQKQDGGLYTLTLRNEFGSDSATVNIHIRSI
heavy 2: QVQLVQSGGGLVQPGRSLRLSCAASGFTFDDYAMHWVRQAPGKGLEWVSGISWNSGSIGYADSVKGRFTISRDNAKNSLYLQMNSLRAEDTALYYCAKEGLPGLDYWGQGTLVTVSSASTKGPSVFPLAPSSKSTSGGTAALGCLVKDYFPEPVTVSWNSGALTSGVHTFPAVLQSSGLYSLSSVVTVPSSSLGTQTYICNVNHKPSNTKVDKKVEPKSCDKTHTCPPCPAPELLGGPSVFLFPPKPKDTLMISRTPEVTCVVVDVSHEDPEVKFNWYVDGVEVHNAKTKPREEQYNSTYRVVSVLTVLHQDWLNGKEYKCKVSNKALPAPIEKTISKAKGQPREPQVCTLPPSREEMTKNQVSLSCAVKGFYPSDIAVEWESNGQPENNYKTTPPVLDSDGSFFLVSKLTVDKSRWQQGNVFSCSVMHEALHNHYTQKSLSLSPGK
light 2: DIQMTQSPSSLSASIGDRATITCRASQHVGTYLNWYQQKPGKTPKLLISGAANLQSGVPSRFSGSGSGTDFTLTISSLQPEDFATYYCQQSYNTPPFSFGQGTKVEIKRTVAAPSVFIFPPSDEQLKSGTASVVCLLNNFYPREAKVQWKVDNALQSGNSQESVTEQDSKDSTYSLSSTLTLSKADYEKHKVYACEVTHQGLSSPVTKSFNRGEC
For B1, the binding result in assay [1] is reported as “binds”. In addition, the “Minimum cell viability (%)” value in [2] is 16.4%.

B2: Anti-HER3/MET bispecific antibody 5D5-A (bispecific antibody, human IgG1, kappa)
heavy 1: not shown
light 1: DIQMTQSPSSLSASVGDRVTITCKSSQSLLYTSSQKNYLAWYQQKPGKAPKLLIYWASTRESGVPSRFSGSGSGTDFTLTISSLQPEDFATYYCQQYYAYPWTFGQGTKVEIKGGGGSGIPPKIECLPIDISIDEGKVLTVASAFTGEPTPEVTWSTGGRKIHSQEQGRFHIENTDDSTTLTIKDVQKQDGGLYTLTLRNEFGSDSATVNIHIRSI
heavy 2: QVQLVQSGGGLVQPGRSLRLSCAASGFTFDDYAMHWVRQAPGKGLEWVSGISWNSGSIGYADSVKGRFTISRDNAKNSLYLQMNSLRAEDTALYYCAKEGLPGLDYWGQGTLVTVSSASTKGPSVFPLAPSSKSTSGGTAALGCLVKDYFPEPVTVSWNSGALTSGVHTFPAVLQSSGLYSLSSVVTVPSSSLGTQTYICNVNHKPSNTKVDKKVEPKSCDKTHTCPPCPAPELLGGPSVFLFPPKPKDTLMISRTPEVTCVVVDVSHEDPEVKFNWYVDGVEVHNAKTKPREEQYNSTYRVVSVLTVLHQDWLNGKEYKCKVSNKALPAPIEKTISKAKGQPREPQVCTLPPSREEMTKNQVSLSCAVKGFYPSDIAVEWESNGQPENNYKTTPPVLDSDGSFFLVSKLTVDKSRWQQGNVFSCSVMHEALHNHYTQKSLSLSPGK
light 2: DIQMTQSPSSLSASIGDRATITCRASQHVGTYLNWYQQKPGKTPKLLISGAANLQSGVPSRFSGSGSGTDFTLTISSLQPEDFATYYCQQSYNTPPFSFGQGTKVEIKRTVAAPSVFIFPPSDEQLKSGTASVVCLLNNFYPREAKVQWKVDNALQSGNSQESVTEQDSKDSTYSLSSTLTLSKADYEKHKVYACEVTHQGLSSPVTKSFNRGEC
B2: the binding result in [1] is on record as “binds”. The “Minimum cell viability (%)” value in [2] is 20.5%.

B3: Anti-HER3/MET bispecific antibody A9-A (bispecific antibody, human IgG1, kappa)
heavy 1: not shown
light 1: EIVLTQSPGTLSLSPGERATLSCRASQSVSNNYLAWYQQKPGQAPRLLIFGASSRATGIPDRFSGSGSGTDFTLTISRLEPEDFAVYYCQQYDISPMYSFGQGTKLEMKGGGGSGIPPKIECLPIDISIDEGKVLTVASAFTGEPTPEVTWSTGGRKIHSQEQGRFHIENTDDSTTLTIKDVQKQDGGLYTLTLRNEFGSDSATVNIHIRSI
heavy 2: QVQLVQSGGGLVQPGRSLRLSCAASGFTFDDYAMHWVRQAPGKGLEWVSGISWNSGSIGYADSVKGRFTISRDNAKNSLYLQMNSLRAEDTALYYCAKEGLPGLDYWGQGTLVTVSSASTKGPSVFPLAPSSKSTSGGTAALGCLVKDYFPEPVTVSWNSGALTSGVHTFPAVLQSSGLYSLSSVVTVPSSSLGTQTYICNVNHKPSNTKVDKKVEPKSCDKTHTCPPCPAPELLGGPSVFLFPPKPKDTLMISRTPEVTCVVVDVSHEDPEVKFNWYVDGVEVHNAKTKPREEQYNSTYRVVSVLTVLHQDWLNGKEYKCKVSNKALPAPIEKTISKAKGQPREPQVCTLPPSREEMTKNQVSLSCAVKGFYPSDIAVEWESNGQPENNYKTTPPVLDSDGSFFLVSKLTVDKSRWQQGNVFSCSVMHEALHNHYTQKSLSLSPGK
light 2: DIQMTQSPSSLSASIGDRATITCRASQHVGTYLNWYQQKPGKTPKLLISGAANLQSGVPSRFSGSGSGTDFTLTISSLQPEDFATYYCQQSYNTPPFSFGQGTKVEIKRTVAAPSVFIFPPSDEQLKSGTASVVCLLNNFYPREAKVQWKVDNALQSGNSQESVTEQDSKDSTYSLSSTLTLSKADYEKHKVYACEVTHQGLSSPVTKSFNRGEC
As to B3, in assay [1], the binding result was “binds”. Besides, the “Minimum cell viability (%)” value in assay [2] worked out at 15.9%.

B4: Anti-HER3/MET antibody-drug conjugate ADC-2 (bispecific antibody, human IgG1, kappa)
heavy 1: not shown
light 1: DIVLTQSPDSLAVSLGERATINCRADKSVSTSTYNYLHWYQQKPGQPPKLLIYLASNLASGVPDRFSGSGSGTDFTLTISSLQAEDVAVYYCQHSRDLPPTFGQGTKLEIKGGGGSGIPPKIECLPIDISIDEGKVLTVASAFTGEPTPEVTWSTGGRKIHSQEQGRFHIENTDDSTTLTIKDVQKQDGGLYTLTLRNEFGSDSATVNIHIRSI
heavy 2: QVQLVQSGGGLVQPGRSLRLSCAASGFTFDDYAMHWVRQAPGKGLEWVSGISWNSGSIGYADSVKGRFTISRDNAKNSLYLQMNSLRAEDTALYYCAKEGLPGLDYWGQGTLVTVSSASTKGPSVFPLAPSSKSTSGGTAALGCLVKDYFPEPVTVSWNSGALTSGVHTFPAVLQSSGLYSLSSVVTVPSSSLGTQTYICNVNHKPSNTKVDKKVEPKSCDKTHTCPPCPAPELLGGPSVFLFPPKPKDTLMISRTPEVTCVVVDVSHEDPEVKFNWYVDGVEVHNAKTKPREEQYNSTYRVVSVLTVLHQDWLNGKEYKCKVSNKALPAPIEKTISKAKGQPREPQVCTLPPSREEMTKNQVSLSCAVKGFYPSDIAVEWESNGQPENNYKTTPPVLDSDGSFFLVSKLTVDKSRWQQGNVFSCSVMHEALHNHYTQKSLSLSPGK
light 2: DIQMTQSPSSLSASIGDRATITCRASQHVGTYLNWYQQKPGKTPKLLISGAANLQSGVPSRFSGSGSGTDFTLTISSLQPEDFATYYCQQSYNTPPFSFGQGTKVEIKRTVAAPSVFIFPPSDEQLKSGTASVVCLLNNFYPREAKVQWKVDNALQSGNSQESVTEQDSKDSTYSLSSTLTLSKADYEKHKVYACEVTHQGLSSPVTKSFNRGEC
modifications: compound 9-A on reduced cysteines, positions not given; compound 9-A (exatecan derivative linker-drug) on reduced cysteines, positions not given; target DAR 6 for the whole molecule
notes: target DAR 6; distribution of the drug over the chains not reported for ADC-2
On to B4, for which, in [3], the Kd was found to be 19.7 nM, the koff was determined as 0.0108 s⁻¹ and the kon was 546000 M⁻¹ s⁻¹.

B5: Anti-HER3/MET antibody-drug conjugate ADC-5 (bispecific antibody, human IgG1, kappa)
heavy 1: not shown
light 1: DIQMTQSPSSVSASVGDRVTITCRASQGISTWLAWYQQKPGKAPKLLIYAASSLKSGVPSRFSGSGSGTDFTLTISSLQPEDFATYYCQQANSFPLTFGGGTKVEIKGGGGSGIPPKIECLPIDISIDEGKVLTVASAFTGEPTPEVTWSTGGRKIHSQEQGRFHIENTDDSTTLTIKDVQKQDGGLYTLTLRNEFGSDSATVNIHIRSI
heavy 2: QVQLVQSGGGLVQPGRSLRLSCAASGFTFDDYAMHWVRQAPGKGLEWVSGISWNSGSIGYADSVKGRFTISRDNAKNSLYLQMNSLRAEDTALYYCAKEGLPGLDYWGQGTLVTVSSASTKGPSVFPLAPSSKSTSGGTAALGCLVKDYFPEPVTVSWNSGALTSGVHTFPAVLQSSGLYSLSSVVTVPSSSLGTQTYICNVNHKPSNTKVDKKVEPKSCDKTHTCPPCPAPELLGGPSVFLFPPKPKDTLMISRTPEVTCVVVDVSHEDPEVKFNWYVDGVEVHNAKTKPREEQYNSTYRVVSVLTVLHQDWLNGKEYKCKVSNKALPAPIEKTISKAKGQPREPQVCTLPPSREEMTKNQVSLSCAVKGFYPSDIAVEWESNGQPENNYKTTPPVLDSDGSFFLVSKLTVDKSRWQQGNVFSCSVMHEALHNHYTQKSLSLSPGK
light 2: DIQMTQSPSSLSASIGDRATITCRASQHVGTYLNWYQQKPGKTPKLLISGAANLQSGVPSRFSGSGSGTDFTLTISSLQPEDFATYYCQQSYNVPPFSFGQGTKVEIKRTVAAPSVFIFPPSDEQLKSGTASVVCLLNNFYPREAKVQWKVDNALQSGNSQESVTEQDSKDSTYSLSSTLTLSKADYEKHKVYACEVTHQGLSSPVTKSFNRGEC
modifications: compound 9-A on reduced cysteines, positions not given; compound 9-A (exatecan derivative linker-drug) on reduced cysteines, positions not given; average DAR 5.87 for the whole molecule
In assay [4], B5 displayed a Kd of 13.1 nM, a koff of 0.000872 s⁻¹ and a kon of 66500 M⁻¹ s⁻¹. Moreover, in assay [5], the Kd is 14.3 nM, the koff is 0.00721 s⁻¹ and the kon came out at 505000 M⁻¹ s⁻¹.

B6: Naked antibody of the control antibody U3-1402 (U3-1402 Ab) (antibody, human IgG1, kappa, V domains shown)
VH: QVQLQQWGAGLLKPSETLSLTCAVYGGSFSGYYWSWIRQPPGKGLEWIGEINHSGSTNYNPSLKSRVTISVETSKNQFSLKLSSVTAADTAVYYCARDKWTWYFDLWGRGTLVTVSS
VL: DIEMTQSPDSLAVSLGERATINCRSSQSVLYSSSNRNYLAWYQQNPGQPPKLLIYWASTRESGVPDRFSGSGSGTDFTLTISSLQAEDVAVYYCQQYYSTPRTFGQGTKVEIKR
notes: Anti-HER3 control
For the molecule B6, the Maximum fluorescence value in assay [6] was determined as 90; in [7], 1240; in assay [9] it was 1990. For the same molecule, the EC50 in assay [7] was determined as 0.46 nM; in assay [9] it was 0.25 nM. In addition, the “Minimum cell viability (%)” value came out at 73.6% in [8], 72.9% in assay [10] and 63.9% in assay [11].
